Data taken from the DeepSol protein solubility set.

Assay: soluble on expression in E. coli; label from the status in PepcDB or PDB records

Sequence	soluble on expression in E. coli
MSLEVIKHDGPGRLGVIRLEPPVQTPALAGVDFTISPFNSYFNPKEYHDYDFNLAPSIPLSYYTPDEVIEKALKRIETVDYSKFNTFYFPALKRDKYYPRFVELIEENDFDAIYIGNSKVMIKDYRGFVATLRILREKFPNAVLITDLEPFFYPLAVYLGVDAFDVRSLKIYSYEGLGFTPFSPVIWDRPNDPIEFAREMIKIIKIAIQEGKLRYLVENFLPTVMNVGILRIADKEHGDYLEKYTPVHDKTVVFISEHSISRPEVFRWRKRIEERFEPPKGIDLLLIFPCSAKKPYSRSRSHMMYRKVMKEALGEKVHRVHELVVTSPYGVVPREWEWLAKYDIVVTGHWSESEVRFAGELLAQTIEKYPDIPIVAHVEGGYREAVKYAMELVNRDVIFTAVGSSTISKESLDKLKKTLKEFDLRDAEKDYRRYRFYENVRKVFDYYFGLGAGEAVLPENAQIVGSKMLRLIVNNSQTGTFQEGVISVTPFGMQRIYDKLNSYWVEVDFDIRGDVFAAGVERADEGIRPNDIVGIVRDGRVVAVGRAVLSGEEMVRAKKGIAVRVRKRVKNKEGHHHHHH	soluble
MAHHHHHHMSVKNTFGTQAAKALCANLYTNWLSEDENVERIRDLLNRVLTLSATDQHSEMGAKNAASMTTAAAAAAGDKKGKAAGADALGNGARHSDPAVGLSTSSAAIHGNADRAQSPQPSPPQKSDKSAAALAADDRTPSPIQPSTSPTLIARFPGGVDELDYPHRAGSPVVTPVSPQPKPIVDPSAPLPHVGTGSLSPHGVHSLGSPRLDTTLNAAMVSGDLTIPLDASSTLSTTARESTTRFLHTSGSFAVTPPANLKQATLDEIPCFYSKRESRGLQIEVDVEEAQELSRLLEKNDPVKKTVWVFGDISSKVFKVPIWYKEALFKDIATRSGLDAATADTLTAAQIRTVYNDVYAPLSVSRRLYELICTHPKKEFITLSDLEGMGKYLVAAHPGLQFLQQPEFQEYYWHTVAVRIMYMLERQQCGRIYWRDFDRSDLPERMMELDAKDVNLVLDYFSYEHFYVLYCKFWELDTDRDLLVGFEDLCNYGQGSVVTGVIKRVVEGYGRPLSSGVPGKMDFEDFVYFCLSEEDKNSEPAVLYWFKVLDTDEDGVLSGYEMMQFFEENQQRFLEFSDSPEGDIAYEDTVCQMLDMVGFDRVKVRKYGVTLGDLRSCPTPANFFNMIFNASKFLLFEHRDPFGEHQMRLRVEKTEWDRFARAEYDRMAAEAQ	not soluble
MGSSHHHHHHGGTGENLYFQGGSGMEKAIRDRVEKWKKEHTIDGKDATNEHAYESLNELILDGKKLTSIKNEEKELLKNFKNLERLCLNQTGIQTLENIPSIATLNVLELTDNHLSSVEVLKYIVQNFPNIKTLEIGGNHFKNINDFETLKELKNLVRLGVQFNPFADNPNYRKELFEFLPNVKIIDCYNKEGMEVLSSDEEEEEEYEEDNTLKNFYEADFKDEDDEDEEFVPNDNEDDDEDDELDDDLEDEDMEDLDKEDLDKEDYDIDTKETEGVNKDEKSNKRKQDALDNTNDMDLKKTKLE	soluble
MDTYKLILNGKTLKGETTTEAVDAATAEKVFKHYANEHGVHGHWTYDPETKTFTVTE	soluble
MPCDFPGCGRIFSNRQYLNHHKKYQHIHQKSFSCPEPACGKSFNFKKHLKEHMKLHSDTRDYICEF	soluble
YDKRIHRFRKGWNSLIPTHNKIQYAGNMGMFSFGTGWDYGKRDQWETDLFFGFIPKHDSHRAKMTMTLKQNYMPWSLELGKGFSTEPLACGIYFNTVFGHEFWVHEPSRYPEGYYGFSSKIRTHIFLGQRLTYDIDRERRFFAKSVTLFYELSTCDLLLISRVTNSYLRARDYLSLSFGLKFQWL	not soluble
MVHHSTKLPKNGGSEPKLVGAYLVSGSRSRIVDLINMIRELNAPILVFTRYPTFYQDLGENIKVIWITQASEDGIPPTKLHVIQDYAIKFAKENKYAVVIIDCVEYLLLYNEFASVFKFLASLKDYLIMMNSALVLAVDEKALDEKYYTLLLNEFEPLLEHHHHHH	soluble
MSTEIKTQVVVLGAGPAGYSAAFRCADLGLETVIVERYNTLGGVCLNVGCIPSKALLHVAKVIEEAKALAEHGIVFGEPKTDIDKIRTWKEKVINQLTGGLAGMAKGRKVKVVNGLGKFTGANTLEVEGENGKTVINFDNAIIAAGSRPIQLPFIPHEDPRIWDSTDALELKEVPERLLVMGGGIIGLEMGTVYHALGSQIDVVEMFDQVIPAADKDIVKVFTKRISKKFNLMLETKVTAVEAKEDGIYVTMEGKKAPAEPQRYDAVLVAIGRVPNGKNLDAGKAGVEVDDRGFIRVDKQLRTNVPHIFAIGDIVGQPMLAHKGVHEGHVAAEVIAGKKHYFDPKVIPSIAYTEPEVAWVGLTEKEAKEKGISYETATFPWAASGRAIASDCADGMTKLIFDKESHRVIGGAIVGTNGGELLGEIGLAIEMGCDAEDIALTIHAHPTLHESVGLAAEVFEGSITDLPNPKAKKK	soluble
GSGKNLIMIQVEALQGFVVNKSINGKEITPNLNKWINKSLYFDNYFYQVAQGNTSDAEFMSLNSLYPAQSGAAYYTYAGNTFNSIPKDLGDKGYYTAALHGYNEGFWNRNVMYKSEKFDDFYGQTSYKNDEVVGMGLSDESFLNQSLAKMKTFKQPYFSFLITLSSHYPFNDTAGYEKYTMNKLDVGEYKDTLLGNYFEGIHYTDEQLGKFLDKLDKEGLTKNSIIVLYGDHFAIPKENINQLYSFEGIKDPTDLTWYEYQKVPMFIHFPDDEHKGVNHTYSGQMDIYPTIANLYNISNNYMFGEDILNVKDGDSTNVTFRNGSFTDGK	not soluble
MAHHHHHHMNLKTKLQKRRDEVNTCLCIGLDPDEADIKSFMQSEKQNGYQSIKKNLSNHGSSSQGGLFTPQVGGTMLLAENPPKEVQEKDEFFYFFNHFCFYIINETKQYALSYKMNFAFYLPYGSLGVDVLKNVFDYLHYLDVPTILDIKMNDIGNTVKHYSKFIFHYLRSDSCTANIYMGTHMLRDICLDEECKRHYSTFVLIKTTNPDSHIFQNRLSLDGKEAYVVIADEAQKMAKQLHLEENGEFVGFVVGANCYDEMKKIRELFPDCYILAPGVGAQKGDLRKTLCNGYSKNYERLLINVGRAITKSGNPQQAAREYYHQIKEILAELRE	soluble
MPQINTVPGPHLRRQVWLRTKSGQRLAYAVSWWDASHVDEYLQNRSLPIWDSLSRLHTELYRDIQAIYCGHNRTLAKAFGQEGPFWGRHYLFWHDRKPLTLIYEIFSPYLSRYLGELPRPKFELEHHHHHH	not soluble
GDTRPRFLQQDKYECHFFNGTERVRFLHRDIYNQEEDLRFDSDVGEYRAVTELGRPDAEYWNSQKDFLEDRRAAVDTYCRHNYGVGESFTVQRRVEPKVTVYPARTQTLQHHNLLVCSVNGFYPGSIEVRWFRNSQEEKAGVVSTGLIQNGDWTFQTLVMLETVPRSGEVYTCQVEHPSVTSPLTVEWRAQS	soluble
MAITNIKCVIFDCDGTLVDSERLCCQALVNVFNQHGAELTMEECVSHFKGGKLADILLDTKELMNINVPIDVLEPQYRTEVQKLFVRHLQPMDGAKRLIQFLDSHNIEYCVASNGPKDKIEHALELTGLLDAFKGKVFSAFEANSWKPEPDLIMYSAMSMGFLPSDCLYIDDTPKGVEAGLNAGIKTVQLFNGEAINRVDDDRVIRIQHLDELKEQLMGCSV	not soluble
MASMTGGQQMGRGSDYFEPQQQQQQQQQQPQGASTPKVFVGYSIYKGKAALTVEPRSPEFSPLDSGAFKLSREGMVMLQFAPAAGVRQYDWSRKQVFSLSVTEIGSIISLGTKDSCEFFHDPNKGRSDEGRVRKVLKVEPLPDGSGHFFNLSVQNKLINLDENIYIPVTKAEFAVLVSAFNFVMPYLLGWHTAVNSFKPEDASRSNNANPRSGAELEWNLEHHHHHH	soluble
AVVITDRQNRIIKVNNEFTRLSGYTFEDVKGKQPSIFASGLHKVEFYMQMWKALQDNGVWEGEVINKRKDGESITEILRIQSIRDEDNVIQFYVASFVDIS	not soluble
AIAASSDVLRQPDKNARPLALSGHVGFDSLPDQLVNKSTSQGFCFNILCIGETGIGKSTLMDTLFNTNFENFESSHFEPKVKLRAQTYDLQESNVRLKLTVVNTVGFGDQMNKQESYQHIVDYIDTQFESYLQEELKIKRSLHNYHDSRIHACLYFIAPSGHSLKSLDLVTMKKLDSKVNIIPVIAKADTISKSELHKFKIKIMSELVSNGVQIYQFPIDDETVAKINTAMNGHLPFAVVGSTEEVNIGNKMVKARQYPWGVVQVENENHCDFVKLREMLICVNMEDLREQTHTRHYELYRRCKLEEMGFKDTDPECKPVSLQQTYEAKRQEFLGELQRREEEMRQTFVQRVKEKEAELKDAERELQGKFEQLKRLHADEKSKLEEKRRSLEEEMSVFSKRKAATELLQAQSFNTSTNNKKDKDRKNSGFM	soluble
RKRYYNTIEDMKGKIRVYCRIRPLNEKESSEREKQMLTTVDEFTVEHPWKDDKRKQHIYDRVFDMRASQDDIFEDTKYLVQSAVDGYNVCIFAYGQTGSGKTFTIYGHESNPGLTPRATKELFNILKRDSKRFSFSLKAYMVELYQDTLVDLLLPKSARRLKLEIKKDSKGMVFVENVTTIPISTLEELRMILERGSERRHVSGTNMNEESSRSHLILSVVIESIDLQTQSAARGKLSFVDLAGSERVKKSGSAGNQLKEAQSINKSLSALGDVIGALSSGNQHIPYRNHKLTMLMSDSLGGNAKTLMFVNVSPAESNLDETYNSLLYASRVRTIVNDPSKHISSKEMVRLKKLVAYWKEQAGKKGEEEDLVDIEEDRTRKDEADS	soluble
MIDHQHLRLFQFCDSQFPTGAFSHSFGLETYIQRETVHDTETFIKWLHLFINEQLTYSDGIAMRIVYHALINNDKDKILDINQKLFVQNLPKETRIGAKQMGTRMVKLALDLYDSEWIQWYYNQMKNNKIKLHPAVCFTMLGHFLGVDVESIIDYYLYQNISSLTQNAVRAIPLGQTAGQQVVTEMIAHIEKTRNHILELDEIDFGMTAPGLELNQMEHENVHVRIFISLEHHHHHH	not soluble
MNLLETVEQDTMPTHYKQMTQVEMIARVTEIKAQLGENLFIPCHHYQKDEVVPFADAIGDSLQLAQIAAQNKKAKHIVFCGVHFMAETADMLTTSEQIVTLPDMRAGCSMADMADIHQLTNAWPKLQTLFGDTILPVTYINSTAAIKSFVGEHGGTTVTSSNATKIVSWALEQKERIFFLPDQHLGRNTAFELGIPLEHMAIWNPIKNELEYEGNLDDCKVILWKGYCSVHQHFTVKNIENIRKNHPNMRIIVHPECTHEVVSLADDSGSTKKIVTEINNAAPGTEWAVGTEANLVGRIIQENPDKKIVSLNPFMCPCMTMNRIDLPHLLWTLEAIQNGEKRNQIKVDEQTTKFALKALERMLQLS	not soluble
MGSDKIHHHHHHMSRPADKPQPFYFAYGSNMNPAQIEARCRKPEVVATARLPDHRLGFFGSSKIWDGGEESAQPEPGADLWGVVYRLSFHDAEILDTWQKVWLDGTGPYFHFPTQVFDAEGRNYPVLLYKRDVLGPRQKPSAPYLDHIIAGAMARALPPPYIDLLRAIPTCQASTPVPRKASFNPEFFAGLACQCGD	not soluble
MGSDKIHHHHHHMLKVRHLEIFRAVVKAGSVSAAARLLYVSQPAVTKTLRMLEEEIGLTLFLRVKGRLVCTPEAESILPEIERLFGSVQSIAETAREIRQGQRGSIRVSTVSMLATTIVARAVGEFRKTHPYVEFDVRALPTRHVVEYVNNNQADFGILDVAAPSGTLEVEEFCSADLRCVMRAAHPLASRKTITPRLLDNEALATFGEDTLTGWRLREAFRAQGRPFTSVFVSNSTPVLCALVREADAVALVDPFALMSRSFPDLVSRRFSPSVPVQPRFLFAPGRPRSVIVDQFVSQLRKTAGEMAMG	not soluble
MGHHHHHHSHPRPEQHKSYKIRFNSISCSDPLVSSWRRKRKESSNTDSAGALGTLRFCVFGLGSRAYPHFCAFARAVDTRLEELGGERLLQLGQGDELCGQEEAFRGWAQAAFQAACETFCVGEDAKAAARDIFSPKRSWKRQRYRLSAQAEGLQLLPGLIHVHRRKMFQATIRSVENLQSSKSTRATILVRLDTGGQEGLQYQPGDHIGVCPPNRPGLV	not soluble
